Assay results reported in patent US20220356245A1 (FORTY SEVEN, published 2022).

Tests used:
[1] = molecular target: T1, human CD47 (hCD47) expressed on cells (human, UniProt Q08722 19-323); test: cell-based or functional assay
[2] = molecular target: T1, human CD47 (hCD47) expressed on cells; test: flow cytometry, Raji cells
Protocol: Raji cells (ATCC-CLL-86; 2×10⁵ cells/well of 96-well plate) were first incubated at +4° C. for 30 minutes with serial dilutions of anti-CD47 antibodies or control isotype antibody (in mIgG2a or mIgG1 format). The cells were then washed and incubated for 30 minutes at +4° C. with a PE-conjugated F(ab)′2 goat anti-mouse IgG antibody ( 1/100 dilution, Beckman Coulter). After washings, the fluorescence of the cells was analyzed by flow cytometry on an Accuri-C6 flow cytometer (BD Biosciences).
The delta of MFI, representing the difference between the intensity measured with the tested antibody and the intensity in the absence of antibody, was calculated for each antibody concentration and the values were plotted against the antibody concentrations. The EC50 values were then calculated by using a nonlinear regression analysis model of the GraphPad Prism software.

[3] = molecular target: T2, hu-sCD47-6His; extracellular domain of human CD47 antigen with 6His-tag (human); test: SPR Biacore T200, antibody captured, hCD47-his analyte;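 note: antibodies captured on anti-IgG (Fc) CM5 chip, five sequential 10 min antigen injections at rising concentrations, reference flow cell and antigen-free cycle as controls, 1:1 model fit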
T2 construct: also called hCD47-his; soluble hCD47
Description: An anti-human or anti-mouse IgG (Fc) was first immobilized on the surface of Serie S Sensor Chips CM5 using the human or mouse antibody capture and amine coupling kits, following the manufacturer's instructions (GE Healthcare). […] The mouse, chimerized or humanized antibodies to be tested were then captured onto the appropriate anti-mouse or anti-human IgG surface in all flow cells except flow cell 1 used as control, at concentration and contact time adjusted so that ˜300 RU were captured on the surface. Binding kinetics were studied by passing increasing concentrations of hCD47-his in a series of five 10 minute injections through all flow cells at a rate of 30 μL/min. […] Following the final injection, buffer was passed across each flow cell for 60 minutes (mouse) or 30 minutes (human) to monitor the dissociation of bound antigen. Regeneration of the binding surface was carried out at the end of the cycle by flowing 3 M MgCl₂ for 60 s at 20 μL/min followed by 10 mM glycine-HCl, pH 1.7 for 180 s at 10 μl/min (for human) or by flowing 10 mM glycine-HCl, ph 1.7 for 360 s at 10 μl/min (for mouse). A second cycle with the same antibodies but no antigen was run as a control. Kinetics binding constants were estimated by non-linear fitting of the sensogram data to the 1:1 binding model provided by the Biacore T200 evaluation software.

[4] = molecular target: T1, human CD47 (hCD47) expressed on cells; test: flow cytometry, hCD47-CHO cells, competition with His-hSIRPα
Protocol: (§1) Human CD47-transfected cells (3×10⁵ cells/well of 96-well plate) were first incubated at +4° C. for 30 minutes with serial dilutions of anti-CD47 antibodies or isotype control antibody (in mIgG2a or mIgG1 format). […] The percentage inhibition was plotted against antibody concentration and the IC50 values were calculated using a nonlinear regression analysis model of the GraphPad Prism software.

[5] = molecular target: T1, human CD47 (hCD47) expressed on cells; test: flow cytometry, hCD47-CHO cells, competition with His-hSIRPα; lower end tied to candidate 26 by Table 5
Protocol: as §1

[6] = molecular target: T1, human CD47 (hCD47) expressed on cells; test: flow cytometry, hCD47-CHO cells, competition with His-hSIRPα; upper end tied to candidate 33 by Table 5
Protocol: as §1

[7] = molecular target: T3, mouse CD47 (mCD47) expressed on CHO cells (mouse, UniProt Q61735 19-303); test: flow cytometry, CHO-mCD47 cells
T3 construct: whole, on cells; also called CHO-mCD47
T3 sequence (looked up): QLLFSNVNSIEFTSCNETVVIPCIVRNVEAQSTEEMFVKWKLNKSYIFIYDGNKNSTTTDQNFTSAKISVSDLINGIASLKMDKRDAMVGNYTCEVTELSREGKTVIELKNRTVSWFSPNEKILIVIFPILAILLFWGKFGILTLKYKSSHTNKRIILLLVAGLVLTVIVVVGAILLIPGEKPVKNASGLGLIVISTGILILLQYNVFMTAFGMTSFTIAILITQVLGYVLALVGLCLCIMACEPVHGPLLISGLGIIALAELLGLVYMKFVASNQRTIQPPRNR

B1: Candidate 26 (VT008-AL6-10G3-10K1), mouse IgG (antibody, V domains shown)
VH: QVQLQQPGPELVKPGASVKLSCKASGYTFTNYWIHWLNQRPGRGLEWIGRIDPNSGGTKYNEKFKSKAILTVDKSSSTTYMQLSSLTSEDSAVYYCARGGYTMDYWGQGTSVTVSS
VL: DVVMPQTPLSLPVSLGDHASISCRSSQSLLHSNGNTYLHWYLQKPGQSPKLLIYKVSYRFSGVPDRISGSGSGTDFTLKISRVEAEDLGVYFCFQSTHVPWTFGGGTKLEIK
notes: Recombinant mouse IgG2a or mIgG1 format, by assay
Phagocytic index, Raji cells and human macrophages, antibody at 0.125 µg/mL [1]: 85.3 Raji cells ingested per 100 macrophages
EC50 [2]: 0.07 µg/mL
Kd [3]: 1.87 nM
koff [3]: 0.000372 s⁻¹
kon [3]: 200000 M⁻¹ s⁻¹
IC50 [4]: 0.359 µg/mL
IC50 [5]: 2.4 nM

B2: Candidate 33 (VL008-AL17-8G5-8K7), mouse IgG (antibody, V domains shown)
VH: LVQLQQSGPELVKPGTSVKISCRSSGYTFTDYYINWVQQRPGQGLEWVGWIFPGSGLTYYNKKFKGKATLSVDKSSNTAYMLLSSLTSEDSAVYFCARPYYGSRWDYTMDYWGQGTSVTVSS
VL: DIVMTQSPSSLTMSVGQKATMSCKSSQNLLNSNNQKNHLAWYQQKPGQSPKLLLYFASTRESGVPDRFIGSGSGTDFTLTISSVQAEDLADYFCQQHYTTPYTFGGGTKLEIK
notes: as for B1
IC50 [6]: 7.3 nM
Phagocytic index, Raji cells and human macrophages, antibody at 0.125 µg/mL [1]: 71.4 Raji cells ingested per 100 macrophages
binding result [7]: no binding (tested: 7.3 µg/mL highest concentration)
EC50 [2]: 0.112 µg/mL
Kd [3]: 0.898 nM
koff [3]: 6.7e-05 s⁻¹
kon [3]: 74600 M⁻¹ s⁻¹
IC50 [4]: 1.11 µg/mL
